{"source": "patent US20190309044A1", "about": "“POLYPEPTIDES AND USES THEREOF AS A DRUG FOR TREATMENT OF AUTOIMMUNE DISORDERS” (Compugen Ltd., priority 2017, published 2019)", "assay_type_in_all_cases": "in vivo, mouse", "key": {"[1]": {"tested_on": "female C57BL/6 recipient mice", "experiment": "HY bone marrow transplantation model, chimerism and T cell subtypes by FACS", "from_the_text": "A transplantation model utilizing male bone marrow (BM) cells from C57BL/6 mice transplanted into female mice of the same starin was used to study whether C1ORF32 ECD-Fc induces immune tolerance. In this model BM cells of the male mouse are rejected by the female recipients due to mismatch in the minor histocompatibility antigen encoded by the Y chromosome (Hya). To allow identification of the male cells in the female mice blood, male mice expressing CD45.1 isotype were selected while the female mice carry CD45.2 isotype. This model provides a tool for testing the effect of potential drugs on induction of tolerance towards the grafted cells.\nIn this model, C1ORF32 ECD-Fc (SEQ ID NO:42) treatment started one week before bone marrow transplantation and continued for five weeks. Female recipient mice were followed for percentage of CD45.1+ and CD45.2+ cells present within the blood.\nFemale C57BL/6 recipient mice (CD45.2+) were sub-lethally irradiated with 200 rads/cGy 24 hours before transplantation of either female C57Bl/6 (CD45.1+) or male C57Bl/6 (CD45.1+) 5×10^6 bone marrow cells. Recipient mice were allocated into treatment groups as detailed below (n=6 per group). Treatments were given at 300 ug/dose i.p, 3×/wk starting one week prior to transplantation and continued for 4 weeks following transplantation, giving a total of 15 treatments during this 5 weeks period.\n1. Female CD45.1 into female CD45.2 2. Male CD45.1 into female CD45.2+ anti-CD40L (300 ug/dose) (Clone MR-1; BioXCell, Cat#BE0017-1) 3. Male CD45.1 into female CD45.2+C1ORF ECD-Fc (SEQ ID NO:42) (300 ug/dose)2 4. Male CD45.1 into female CD45.2+ Control Ig (mouse IgG2a) (300 ug/dose)\nBeginning at 2 weeks following bone marrow transplantation, blood samples from the tail were collected from each mouse once a week for 4 weeks. Approximately 2-3 drops of blood were collected per mouse into 200 ul of PBS+EDTA (50 mM), samples were spun down, and RBCs lysed with ammonium chloride. The cells were washed 3× with PBS, stained with the viability dye Aqua Dead Cell Stain (Invitrogen; Cat#L34957), blocked with Fc Receptor block (anti-mouse CD16/32; eBioscience; Cat#14-0161-86), and stained with anti-mouse CD45.1 APC-Cy7 (eBiosciences; Cat#47-0453-80) and anti-mouse CD45.2 FITC (eBioscience; Cat#11-0454-82). The analysis for chimerism was determined by flow cytometric analysis (on total live cells) for the percentage of CD45.1+ versus CD45.2+ cells present in the blood of female recipient mice.\nDuring weeks 6, 7, and 8 the blood samples were also stained to determine the percentage of CD4+ Teff cells and CD4+ Treg cells present within the blood using the cellular markers CD44, CD25, and FoxP3. Details of the Abs used in the flow panels for weeks 6, 7, and 8 are listed below."}, "SJL/J mice [2]": {"tested_on": "SJL/J mice", "experiment": "Trafficking of transferred cells into the CNS by flow cytometry, adoptive transfer R-EAE", "details": "day +10 post cell transfer", "description": "PLP139-151 sensitized cells were generated as described in Materials and Methods (cell counts in the reactivation culture are presented in Table 2) and labeled with PBSE (4 uM) before transfer to naïve mice. In study “Cgen data” (FIG. 12), disease was induced in recipient mice (n=10 per group) by i.v. transfer of 5×10^6 blast cells to each recipient mouse. A relatively large number of transferred cells were used in order to allow detection of the transferred cells by flow cytometry analysis at the end of the study. Mice were split into Control Ig and C1ORF32 ECD-Fc (SEQ ID NO:42) treatment groups, receiving 100 ug/dose intraperitoneal injection three times per week for 2 weeks. On Day +14 after cell transfer, 5 representative mice from each group were selected for analysis of trafficking of transferred cells into the CNS. Spleens, cervical lymph nodes, and CNS were collected, and the number of PBSE- or PBSE+/CD45+/CD3+/CD4+ T cells was analyzed by flow cytometric analysis.\nAn additional experiment (designated “MYC48 FACS”, FIG. 13) was performed using an alternative staining follow-up approach. […] To evaluate C1ORF32 ECD-Fc (SEQ ID NO:42) effect on immune cell trafficking to the CNS, spleens, cervical lymph nodes, and CNS cells collected form 5 mice on day +10 post cell transfer, and the number of transferred CD45hi PBSE+ or GFP+ cells was analyzed by flow cytometry. […]"}, "SJL/J mice [3]": {"tested_on": "SJL/J mice", "experiment": "T cell and Treg counts in spleen and CNS by FACS, R-EAE with IL-10 or TGFb blockade", "details": "day 44", "from_the_text": "On day 44 post disease induction, the rest of the mice were sacrificed and spleens and CNS were taken for cell counts and cell population analysis as described below.\n4. Experimental stains (CD45, CD3, CD4, CD25, FoxP3, Nrp-1, and Helios)\n9. Gating scheme for flow: Singlets (FSC-A vs. FSC-H)->Cells (SSC-A vs. FSC-A)->Live (VID stain negative cells)->CD45hi->CD3/CD4+->CD25/FoxP3+->Helios/Nrp-1"}}, "data": [{"molecule": "C1ORF32 ECD-Fc (SEQ ID NO:42): human-mouse fusion protein: human C1ORF32 ECD fused to mouse immunoglobulin Fc (SEQ ID NO:42) (protein, Fusion protein human C1ORF32-ECD fused to mouse IgG2a Fc) LQVTVPDKKKVAMLFQPTVLRCHFSTSSHQPAVVQWKFKSYCQDRMGESLGMSSTRAQSLSKRNLEWDPYLDCLDSRRTVRVVASKQGSTVTLGDFYRGREITIVHDADLQIGKLMWGDSGLYYCIITTPDDLEGKNEDSVELLVLGRTGLLADLLPSFAVEIMGSENLYFQGSGEPRGPTIKPCPPCKCPAPNLLGGPSVFIFPPKIKDVLMISLSPIVTCVVVDVSEDDPDVQISWFVNNVEVHTAQTQTHREDYNSTLRVVSALPIQHQDWMSGKEFKCKVNNKDLPAPIERTISKPKGSVRAPQVYVLPPPEEEMTKKQVTLTCMVTDFMPEDIYVEWTNNGKTELNYKNTEPVLDSDGSYFMYSKLRVEKKNWVERNSYSCSVVHEGLHNHHTTKSFSRTPGK", "values": [{"measurement": "male CD45.1+ cells in the blood of recipient females", "setting": "[1]; by week 4 post transplantation, maintained until week 8, 300 ug/dose i.p. 3x/wk 5 weeks", "result": "highly significant number of male CD45.1+ cells were present"}, {"measurement": "effector/memory CD4+ T cells (CD45.1+/CD4+/CD44hi) in blood", "setting": "[1]; week 6, vs Control Ig", "result": "decrease"}, {"measurement": "CD45.2+ and CD4+ T cells within the spleen", "setting": "[1]; week 8, vs Control Ig", "result": "lower percentage and number"}, {"measurement": "donor Tregs (FoxP3+CD25+) in blood", "setting": "[1]; week 8, vs Control Ig", "result": "significant increase"}, {"measurement": "donor activated CD4+ T cells (FoxP3-CD25+) in blood", "setting": "[1]; week 8, vs Control Ig", "result": "decrease"}, {"measurement": "donor effector/memory CD4+ T cells (CD44hi) in blood", "setting": "[1]; week 8, vs Control Ig", "result": "significant increase"}, {"measurement": "recipients' CD45.2+ T cell populations in blood", "setting": "[1]; week 8, vs Control Ig", "result": "No differences"}, {"measurement": "number of total or activated transferred T cells in spleen and cervical lymph nodes", "setting": "SJL/J mice [2]", "result": "No change"}, {"measurement": "leukocytes and T cell counts in the CNS (CD45+, CD4+, CD25+/FoxP3+)", "setting": "SJL/J mice [3]", "result": "pronounced decrease"}]}]}
